As a reminder, the Kd is the constant that tells how readily two partners part at equilibrium.

Data on one molecule can be found in paper PMC8238508, “Protein-based condensation mechanisms drive the assembly of RNA-rich P granules”.

The target of data set [1] is T1, MEG-3 IDR (Caenorhabditis elegans, UniProt Q9TXM1 1-544).
T1 sequence: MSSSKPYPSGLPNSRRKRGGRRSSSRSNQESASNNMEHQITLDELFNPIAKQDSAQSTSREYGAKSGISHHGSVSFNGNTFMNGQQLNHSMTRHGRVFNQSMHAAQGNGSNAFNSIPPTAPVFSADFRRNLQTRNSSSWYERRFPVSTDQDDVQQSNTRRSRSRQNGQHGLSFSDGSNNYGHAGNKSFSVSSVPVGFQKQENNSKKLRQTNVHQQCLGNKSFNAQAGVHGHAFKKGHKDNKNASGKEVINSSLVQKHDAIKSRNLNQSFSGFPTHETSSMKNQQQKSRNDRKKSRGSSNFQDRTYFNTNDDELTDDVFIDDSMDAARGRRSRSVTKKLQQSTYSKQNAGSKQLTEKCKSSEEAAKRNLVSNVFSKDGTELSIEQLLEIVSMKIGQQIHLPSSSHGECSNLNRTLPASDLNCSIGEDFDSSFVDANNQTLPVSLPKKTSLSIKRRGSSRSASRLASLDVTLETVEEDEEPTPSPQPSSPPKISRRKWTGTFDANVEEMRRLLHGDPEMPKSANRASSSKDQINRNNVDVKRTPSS
Put plainly: filter binding; mean and SD computed from four replicate fits: 109.3, 83.64, 103.3, 107.9; Hill model; curve assigned by legend order; 50 nM RNA; 3.75 mM HEPES (stock pH 7.4), 150 mM NaCl, 0.9 mM beta-mercaptoethanol, 1.5% glycerol, 10 mM Tris HCl; 30 min, room temperature; nitrocellulose/Hybond-N+ dot blot. The following applies: protein: recombinant; tags: N-terminal 6xHis (pET28a); label: 3' fluorescein.

The target of data set [2] is T2, MEG-3 (wild type) (Caenorhabditis elegans, UniProt Q9TXM1 1-862).
T2 sequence: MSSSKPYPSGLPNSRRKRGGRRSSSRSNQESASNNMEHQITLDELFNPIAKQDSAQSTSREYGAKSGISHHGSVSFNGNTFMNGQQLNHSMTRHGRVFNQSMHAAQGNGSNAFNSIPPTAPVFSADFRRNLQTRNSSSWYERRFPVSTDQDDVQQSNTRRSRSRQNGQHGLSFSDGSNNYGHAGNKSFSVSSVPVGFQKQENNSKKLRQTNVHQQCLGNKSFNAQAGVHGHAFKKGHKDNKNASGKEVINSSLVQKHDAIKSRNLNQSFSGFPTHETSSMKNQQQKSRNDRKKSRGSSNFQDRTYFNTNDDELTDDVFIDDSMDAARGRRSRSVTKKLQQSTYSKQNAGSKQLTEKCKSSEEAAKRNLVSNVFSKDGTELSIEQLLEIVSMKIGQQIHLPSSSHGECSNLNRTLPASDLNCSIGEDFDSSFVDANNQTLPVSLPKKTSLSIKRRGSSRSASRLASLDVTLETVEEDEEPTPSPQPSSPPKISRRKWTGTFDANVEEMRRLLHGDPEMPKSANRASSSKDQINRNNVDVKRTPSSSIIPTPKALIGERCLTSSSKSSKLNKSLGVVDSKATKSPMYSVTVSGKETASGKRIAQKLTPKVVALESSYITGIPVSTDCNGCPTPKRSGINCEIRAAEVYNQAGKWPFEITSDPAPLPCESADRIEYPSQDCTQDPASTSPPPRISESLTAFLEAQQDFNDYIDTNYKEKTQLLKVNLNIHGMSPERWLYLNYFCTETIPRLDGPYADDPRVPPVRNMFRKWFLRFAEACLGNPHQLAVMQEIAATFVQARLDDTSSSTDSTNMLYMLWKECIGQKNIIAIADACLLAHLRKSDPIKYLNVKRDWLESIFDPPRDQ
Put plainly: filter binding; mean and SD computed from four replicate fits: 809.8, 808.8, 661.5, 695.9; Hill model; 50 nM RNA; 3.75 mM HEPES (stock pH 7.4), 150 mM NaCl, 0.9 mM beta-mercaptoethanol, 1.5% glycerol, 10 mM Tris HCl; 30 min, room temperature; nitrocellulose/Hybond-N+ dot blot. To be noted: protein: recombinant; tags: N-terminal 6xHis (pET28a); label: 3' fluorescein.

B1: poly-U(30) (30U) (ssRNA)
RNA: UUUUUUUUUUUUUUUUUUUUUUUUUUUUUU
With B1, the Kd in data set [1] came out at 101 ± 12 nM; in data set [2], 744 ± 77 nM.
